Source: patent US20040175799

How the values were obtained:
[1] = molecular target: Actin, bovine muscle, P68138
[2] = molecular target: Aprotinin, bovine lung, P00974
[3] = molecular target: Bovine serum albumin, bovine, P02769
[4] = molecular target: Collagen, Type I, bovine Achilles tendon, P02453
[5] = molecular target: Gelatin, Type B, bovine skin
[6] = molecular target: Muscle acetone powder, chicken breast
[7] = molecular target: T1, Myoglobin, horse skeletal muscle, P68082
T1 chain: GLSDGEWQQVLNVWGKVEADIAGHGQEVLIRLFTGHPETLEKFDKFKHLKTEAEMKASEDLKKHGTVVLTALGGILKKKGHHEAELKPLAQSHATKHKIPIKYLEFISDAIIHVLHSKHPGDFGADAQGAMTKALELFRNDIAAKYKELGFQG

[8] = molecular target: T2, Ovalbumin, chichen egg, P01012
T2 chain: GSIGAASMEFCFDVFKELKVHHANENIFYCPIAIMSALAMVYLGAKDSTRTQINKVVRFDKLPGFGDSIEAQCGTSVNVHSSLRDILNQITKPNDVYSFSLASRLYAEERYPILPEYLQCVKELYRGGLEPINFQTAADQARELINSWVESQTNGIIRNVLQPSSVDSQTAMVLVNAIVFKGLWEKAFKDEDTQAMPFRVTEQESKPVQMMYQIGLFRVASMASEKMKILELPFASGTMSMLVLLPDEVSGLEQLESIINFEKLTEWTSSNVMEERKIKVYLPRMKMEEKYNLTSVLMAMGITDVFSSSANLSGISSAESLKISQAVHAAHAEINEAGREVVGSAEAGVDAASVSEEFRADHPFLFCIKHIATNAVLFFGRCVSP

[9] = molecular target: T3, RNase A, bovine pancreas, P61823
T3 chain: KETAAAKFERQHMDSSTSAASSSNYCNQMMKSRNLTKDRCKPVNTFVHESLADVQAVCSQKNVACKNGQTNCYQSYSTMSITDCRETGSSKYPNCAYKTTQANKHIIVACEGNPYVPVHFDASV

[10] = molecular target: α-Chymotrypsinogen A, bovine pancreas, P00766
[11] = molecular target: T4, α-Lactoalbumin, bovine milk, P00711
T4 chain: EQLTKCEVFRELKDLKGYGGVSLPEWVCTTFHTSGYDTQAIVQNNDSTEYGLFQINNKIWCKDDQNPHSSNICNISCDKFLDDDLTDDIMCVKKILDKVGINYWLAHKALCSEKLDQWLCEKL

[12] = molecular target: T5, β-Casein, bovine milk, P02666
T5 chain: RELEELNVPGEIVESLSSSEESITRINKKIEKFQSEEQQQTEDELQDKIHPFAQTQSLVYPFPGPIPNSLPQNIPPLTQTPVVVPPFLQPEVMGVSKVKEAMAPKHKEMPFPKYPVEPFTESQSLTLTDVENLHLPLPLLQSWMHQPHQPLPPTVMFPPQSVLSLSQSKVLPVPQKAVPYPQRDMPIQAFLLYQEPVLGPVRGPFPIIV

[13] = molecular target: T6, β-Lactoglobulin, bovine milk, P02754
T6 chain: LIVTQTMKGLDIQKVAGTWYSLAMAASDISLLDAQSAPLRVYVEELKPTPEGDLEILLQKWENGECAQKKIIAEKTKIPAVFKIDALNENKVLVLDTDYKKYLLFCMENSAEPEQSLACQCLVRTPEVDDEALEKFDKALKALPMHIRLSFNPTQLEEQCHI

Chain of Bovine serum albumin, bovine, P02769 (P02769 25-607): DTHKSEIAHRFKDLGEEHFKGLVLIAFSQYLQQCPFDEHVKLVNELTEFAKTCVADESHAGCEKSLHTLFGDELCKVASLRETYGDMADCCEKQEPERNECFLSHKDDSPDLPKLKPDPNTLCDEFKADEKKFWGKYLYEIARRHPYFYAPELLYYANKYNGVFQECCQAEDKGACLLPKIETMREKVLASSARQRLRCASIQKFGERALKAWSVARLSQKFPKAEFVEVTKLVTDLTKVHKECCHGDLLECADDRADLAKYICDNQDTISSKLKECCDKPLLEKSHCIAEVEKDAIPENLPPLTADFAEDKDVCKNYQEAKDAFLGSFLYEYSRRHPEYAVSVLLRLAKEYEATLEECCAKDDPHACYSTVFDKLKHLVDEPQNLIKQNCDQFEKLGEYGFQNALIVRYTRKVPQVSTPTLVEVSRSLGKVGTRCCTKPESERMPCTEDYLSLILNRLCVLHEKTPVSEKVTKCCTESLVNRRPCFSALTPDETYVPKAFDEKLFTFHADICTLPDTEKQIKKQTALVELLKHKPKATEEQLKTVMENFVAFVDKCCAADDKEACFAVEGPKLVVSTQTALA
Chain of Collagen, Type I, bovine Achilles tendon, P02453 (P02453 162-1217, chain 1 of 2): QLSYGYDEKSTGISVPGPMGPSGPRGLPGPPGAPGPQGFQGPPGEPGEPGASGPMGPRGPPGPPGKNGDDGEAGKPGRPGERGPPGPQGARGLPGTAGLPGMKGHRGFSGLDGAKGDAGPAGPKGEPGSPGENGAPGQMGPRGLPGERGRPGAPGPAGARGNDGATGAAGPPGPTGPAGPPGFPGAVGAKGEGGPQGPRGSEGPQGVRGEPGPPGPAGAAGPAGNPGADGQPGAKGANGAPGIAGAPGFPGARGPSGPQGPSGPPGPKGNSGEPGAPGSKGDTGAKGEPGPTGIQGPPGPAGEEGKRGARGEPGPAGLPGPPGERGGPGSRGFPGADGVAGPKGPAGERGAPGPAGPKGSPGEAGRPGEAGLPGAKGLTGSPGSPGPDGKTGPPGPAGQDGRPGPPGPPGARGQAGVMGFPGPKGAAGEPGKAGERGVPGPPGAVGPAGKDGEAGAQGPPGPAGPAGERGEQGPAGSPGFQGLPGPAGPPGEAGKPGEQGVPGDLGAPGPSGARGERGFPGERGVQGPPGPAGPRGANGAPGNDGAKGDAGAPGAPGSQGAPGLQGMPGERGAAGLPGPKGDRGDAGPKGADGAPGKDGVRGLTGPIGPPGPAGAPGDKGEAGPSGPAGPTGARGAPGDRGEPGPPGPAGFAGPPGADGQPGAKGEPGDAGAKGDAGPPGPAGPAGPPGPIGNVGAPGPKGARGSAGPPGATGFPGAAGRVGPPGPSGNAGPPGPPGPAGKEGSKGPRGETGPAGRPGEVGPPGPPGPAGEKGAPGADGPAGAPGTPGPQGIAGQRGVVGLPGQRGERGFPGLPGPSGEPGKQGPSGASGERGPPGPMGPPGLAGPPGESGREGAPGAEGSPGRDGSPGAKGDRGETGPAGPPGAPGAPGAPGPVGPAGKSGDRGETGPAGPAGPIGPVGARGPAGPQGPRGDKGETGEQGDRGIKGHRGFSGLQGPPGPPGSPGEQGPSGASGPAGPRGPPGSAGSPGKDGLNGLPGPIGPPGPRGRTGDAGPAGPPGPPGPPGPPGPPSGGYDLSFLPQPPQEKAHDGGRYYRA
Chain of Collagen, Type I, bovine Achilles tendon, P02453 (P02453 other isoform, or with tags, fused parts or gaps, chain 2 of 2): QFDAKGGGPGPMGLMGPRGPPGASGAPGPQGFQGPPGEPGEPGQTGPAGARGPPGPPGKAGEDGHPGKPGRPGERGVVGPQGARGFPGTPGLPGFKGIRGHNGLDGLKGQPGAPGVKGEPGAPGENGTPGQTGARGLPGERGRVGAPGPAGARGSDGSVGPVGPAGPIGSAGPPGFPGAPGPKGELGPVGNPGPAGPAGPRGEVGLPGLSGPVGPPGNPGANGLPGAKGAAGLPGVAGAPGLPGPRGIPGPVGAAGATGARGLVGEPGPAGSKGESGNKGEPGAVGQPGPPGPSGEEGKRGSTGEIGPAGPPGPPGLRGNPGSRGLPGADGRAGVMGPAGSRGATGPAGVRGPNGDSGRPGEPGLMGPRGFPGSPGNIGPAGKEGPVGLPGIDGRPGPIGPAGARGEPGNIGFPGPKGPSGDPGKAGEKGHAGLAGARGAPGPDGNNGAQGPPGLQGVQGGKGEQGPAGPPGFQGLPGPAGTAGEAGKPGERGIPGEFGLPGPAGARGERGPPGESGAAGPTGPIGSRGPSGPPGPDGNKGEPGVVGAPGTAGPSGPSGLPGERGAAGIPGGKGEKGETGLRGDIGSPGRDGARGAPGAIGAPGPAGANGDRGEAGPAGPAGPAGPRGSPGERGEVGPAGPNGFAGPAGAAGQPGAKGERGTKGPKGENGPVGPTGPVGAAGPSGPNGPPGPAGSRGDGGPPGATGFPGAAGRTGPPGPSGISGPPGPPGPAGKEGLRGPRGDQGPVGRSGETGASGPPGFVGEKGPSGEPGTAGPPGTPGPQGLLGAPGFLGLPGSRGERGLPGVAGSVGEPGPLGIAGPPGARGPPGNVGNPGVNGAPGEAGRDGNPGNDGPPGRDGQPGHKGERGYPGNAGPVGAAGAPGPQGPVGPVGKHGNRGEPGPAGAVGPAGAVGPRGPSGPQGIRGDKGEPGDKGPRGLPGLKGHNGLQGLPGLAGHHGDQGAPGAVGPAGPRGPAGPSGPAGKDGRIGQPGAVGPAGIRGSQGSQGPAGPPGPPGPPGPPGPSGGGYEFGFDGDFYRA

B1: protein-deamidating enzyme purified from Chryseobacterium sp. No. 9670 (protein)
chain: LASVIPDVATLNSLFNQIKNQSCGTSTASSPCITFRYPVDGCYARAHKMRQILMNNGYDCEKQFVYGNLKASTGTCCVAWSYHVAILVSYKNASGVTEKRIIDPSLFSSGPVTDTAWRNACVNTSCGSASVSSYANTAGNVYYRSPSNSYLYDNNLINTNCVLTKFSLLSGCSPSPAPDVSSCGF
Ammonia releasing rate [1]: 0.45 µmol/min/mg | Ammonia releasing rate [2]: 0.224 µmol/min/mg | Ammonia releasing rate [3]: 0.009 µmol/min/mg | Ammonia releasing rate [4]: 0.177 µmol/min/mg | Ammonia releasing rate [5]: 0.696 µmol/min/mg | Ammonia releasing rate (Gliadin, what (wheat)): 5.47 µmol/min/mg | Ammonia releasing rate (Gluten, wheat): 7.2 µmol/min/mg | deamidation ratio (Gluten, wheat): 74% in wheat gluten | Ammonia releasing rate [6]: 0.21 µmol/min/mg | Ammonia releasing rate [7]: 0.014 µmol/min/mg | Ammonia releasing rate [8]: 0.005 µmol/min/mg | Ammonia releasing rate [9]: 2.91 µmol/min/mg | Ammonia releasing rate (Soy protein isolate): 1.17 µmol/min/mg | Ammonia releasing rate (Zein, corn): 0.655 µmol/min/mg | deamidation ratio (albumen protein): 7% in albumen protein | deamidation ratio (milk caseinate): 60% in caseinate | deamidation ratio (soybean protein): 20% in soybean protein | deamidation ratio (whey protein): 23% in whey protein | Ammonia releasing rate (α-Casein, bovine milk): 19.1 µmol/min/mg | Ammonia releasing rate [10]: 0.65 µmol/min/mg | Ammonia releasing rate [11]: 0.836 µmol/min/mg | Ammonia releasing rate [12]: 18.1 µmol/min/mg | Ammonia releasing rate [13]: 0.728 µmol/min/mg
